Test results: patent US12553037B2, “Engineered class 2, type V repressor systems” (Scribe Therapeutics Inc., priority 2021, dated 2026)
Substitutions are numbered along the chain they refer to.

Legend:
[1] = Editing assays comparing gRNA scaffolds 316 and 174
human B2M locus = experiment: Editing (indel rate by NGS) at the B2M locus by catalytically-dead CasX variants (Example 8); format: cell-based; settings: B2M-targeting spacer 7.37, HEK293T, six days after transfection
HBEGF locus = format: cell-based, human; settings: abundance of KRAB domain before vs after selection; 2 ng/mL diphtheria toxin for 48 hours; spacer 34.28; HEK293T
[2] = system: endogenous B2M (beta-2-microglobulin) gene; experiment: B2M protein expression by HLA antibody staining and flow cytometry (Example 1); format: cell-based, human; settings: HEK293T, seven days post-transfection
Description: dXR variant plasmids encoding constructs having the configuration of U6-gRNA+Ef1α-NLS-GGS-dCasX491-GGS-KRAB variant-NLS (dCasX491 refers to catalytically-dead CasX 491), were transiently transfected into HEK293T cells in an arrayed 96-well format. These constructs also contained a 2× FLAG sequence, as well as sequences encoding either a gRNA scaffold 174 (SEQ ID NO: 2238) having a spacer (spacer 7.37) targeting the endogenous B2M (beta-2-microglobulin) gene or a non-targeting control (spacer 0.0), which were all cloned upstream of a P2A-puromycin element on the plasmid. Four different effector domains were tested in addition to the “naked” dCasX491 (KRAB variant domains listed in Table 9; spacer sequences listed in Table 10; sequences of additional elements listed in Table 11). The corresponding protein sequences of the dXR molecule are listed in Table 13, and the generic configuration of the dXR molecule is illustrated in FIG. 38. Positive and negative controls based on a catalytically-dead Cas9 nuclease (with or without a ZNF10 repressor) with a B2M-targeting gRNA (spacer 7.14) or a non-targeting gRNA control (spacer 0.0) were included, along with a catalytically-active CasX 491 and gRNA with the same 7.37 and 0.0 spacers. Two days after transfection, total RNA was harvested, and reverse transcribed to generate a cDNA library. Changes in gene expression were calculated by performing qPCR on the targeted gene and a housekeeping gene as reference. Relative gene expression represents the amount of target-specific RNA relative to a reference gene normalized to the non-targeting guide condition for two biological replicates. In addition to the wells used for RNA measurements, a separate set of wells was harvested seven days post-transfection and analyzed for B2M protein expression. Expression of B2M protein was determined by using an antibody that detects the B2M-dependent HLA protein complex on the cell surface.

B1: 316 scaffold: chimeric gRNA scaffold, SEQ ID NO: 59352, 89 nucleotides (nucleic acid)
guide: ACUGGCGCUUCUAUCUGAUUACUCUGAGCGCCAUCACCAGCGACUAUGUCGUAGUGGGUAAAGCUCCCUCUUCGGAGGGAGCAUCAGAG
modifications: listed as RNA, further chemistry not given here
For B1, the “performance in editing assays relative to gRNA scaffold 174” value [1] was “perform comparably or more favorably than gRNA scaffold 174”.

B2: dCasX527: dCasX variant, SEQ ID NO: 24 (protein)
chain: QEIKRINKIRRRLVKDSNTKKAGKTRGPMKTLLVRVMTPDLRERLENLRKKPENIPQPISNTSRANLNKLLTDYTEMKKAILHVYWEEFQKDPVGLMSRVAQPASKKIDQNKLKPEMDEKGNLTTAGFACSQCGQPLFVYKLEQVSEKGKAYTNYFGRCNVAEHEKLILLAQLKPEKDSDEAVTYSLGKFGQRALDFYSIHVTKESTHPVKPLAQIAGNRYASGPVGKALSDACMGTIASFLSKYQDIIIEHQKVVKGNQKRLESLRELAGKENLEYPSVTLPPQPHTKEGVDAYNEVIARVRMWVNLNLWQKLKLSRDDAKPLLRLKGFPSFPLVERQANEVDWWDMVCNVKKLINEKKEDGKVFWQNLAGYKRQEALRPYLSSEEDRKKGKKFARYQLGDLLLHLEKKHGEDWGKVYDEAWERIDKKVEGLSKHIKLEEERRSEDAQSKAALTDWLRAKASFVIEGLKEADKDEFCRCELKLQKWYGDLRGKPFAIEAENSILDISGFSKQYNCAFIWQKDGVKKLNLYLIINYFKGGKLRFKKIKPEAFEANRFYTVINKKSGEIVPMEVNFNFDDPNLIILPLAFGKRQGREFIWNDLLSLETGSLKLANGRVIEKTLYNRRTRQDEPALFVALTFERREVLDSSNIKPMNLIGVARGENIPAVIALTDPEGCPLSRFKDSLGNPTHILRIGESYKEKQRTIQAKKEVEQRRAGGYSRKYASKAKNLADDMVRNTARDLLYYAVTQDAMLIFANLSRGFGRQGKRTFMAERQYTRMEDWLTAKLAYEGLSKTYLSKTLAQYTSKTCSNCGFTITSADYDRVLEKLKKTATGWMTTINGKELKVEGQITYYNRYKRQNVVKDLSVELDRLSEESVNNDISSWTKGRSGEALSLLKKRFSHRPVQEKFVCLNCGFETHAAEQAALNIARSWLFLRSQEYKKYQTNKTTGNTDKRAFVETWQSFYRKKLKEVWKPAV
With B2 the “percent editing at the B2M locus measured as indel rate” value (from here on “percent editing at the B2M locus”) (human B2M locus) was “did not exhibit editing”.

B3: DOMAIN_26749: KRAB domain derived from the king cobra, Ophiophagus hannah; SEQ ID NO: 57755 (protein)
chain: STPVTFEDVVVYFTAAEWVHLTNWQRDFYQAVMMETYELVASVAGDGVPMAEDEEGGVERPVWQYIPRGKRRRKTPQPRAD
modifications: Ophiophagus hannah
For B3, the “log2(fold change)” value (HBEGF locus) was “highest log2(fold change)”.

B4: dCasX668: dCasX variant, SEQ ID NO: 59355 (protein)
chain: QEIKRINKIRRRLVKDSNTKKAGKTRGPMKTLLVRVMTPDLRERLENLRKKPENIPQPISNTSRANLNKLLTDYTEMKKAILHVYWEEFQKDPVGLMSRVAQPASKKIDQNKLKPEMDEKGNLTTAGFACSQCGQPLFVYKLEQVSEKGKAYTNYFGRCNVAEHEKLILLAQLKPEKDSDEAVTYSLGKFGQRALDFYSIHVTKESTHPVKPLAQIAGNRYASSPVGKALSDACMGTIASFLSKYQDIIIEHQKVVKGNQKRLESLRELAGKENLEYPSVTLPPQPHTKEGVDAYNEVIARVRMWVNLNLWQKLKLSRDDAKPLLRLKGFPSFPLVERQANEVDWWDMVCNVKKLINEKKEDGKVFWQNLAGYKRQEALRPYLSSEEDRKKGKKFARYQLGDLLLHLEKKHGEDWGKVYDEAWERIDKKVEGLSKHIKLEEERRSEDAQSKAALTDWLRAKASFVIEGLKEADKDEFCRCELKLQKWYGDLRGKPFAIEAENSILDISGFSKQYNCAFIWQKDGVKKLNLYLIINYFKGGKLRFKKIKPEAFEANRFYTVINKKSGEIVPMEVNFNFDDPNLIILPLAFGKRQGREFIWNDLLSLETGSLKLANGRVIEKTLYNRRTRQDEPALFVALTFERREVLDSSNIKPMNLIGVARGENIPAVIALTDPEGCPLSRFKDSLGNPTHILRIGESYKEKQRTIQAKKEVEQRRAGGYSRKYASKAKNLADDMVRNTARDLLYYAVTQDAMLIFANLSRGFGRQGKRTFMAERQYTRMEDWLTAKLAYEGLPSKTYLSKTLAQYTSKTCSNCGFTITSADYDRVLEKLKKTATGWMTTINGKELKVEGQITYYNRYKRQNVVKDLSVELDRLSEESVNNDISSWTKGRSGEALSLLKKRFSHRPVQEKFVCLNCGFETHAAEQAALNIARSWLFLRSQEYKKYQTNKTTGNTDKRAFVETWQSFYRKKLKEVWKPAV
With B4 the “percent editing at the B2M locus” value (human B2M locus) was “did not exhibit editing”.

B5: dCasX676: dCasX variant, SEQ ID NO: 59357 (protein)
chain: B4 chain with L169K
With B5 the “percent editing at the B2M locus” value (human B2M locus) was “did not exhibit editing”.

B6: dCasX491: catalytically-dead CasX 491, SEQ ID NO: 18 (protein)
chain: QEIKRINKIRRRLVKDSNTKKAGKTGPMKTLLVRVMTPDLRERLENLRKKPENIPQPISNTSRANLNKLLTDYTEMKKAILHVYWEEFQKDPVGLMSRVAQPASKKIDQNKLKPEMDEKGNLTTAGFACSQCGQPLFVYKLEQVSEKGKAYTNYFGRCNVAEHEKLILLAQLKPEKDSDEAVTYSLGKFGQRALDFYSIHVTKESTHPVKPLAQIAGNRYASGPVGKALSDACMGTIASFLSKYQDIIIEHQKVVKGNQKRLESLRELAGKENLEYPSVTLPPQPHTKEGVDAYNEVIARVRMWVNLNLWQKLKLSRDDAKPLLRLKGFPSFPLVERQANEVDWWDMVCNVKKLINEKKEDGKVFWQNLAGYKRQEALRPYLSSEEDRKKGKKFARYQLGDLLLHLEKKHGEDWGKVYDEAWERIDKKVEGLSKHIKLEEERRSEDAQSKAALTDWLRAKASFVIEGLKEADKDEFCRCELKLQKWYGDLRGKPFAIEAENSILDISGFSKQYNCAFIWQKDGVKKLNLYLIINYFKGGKLRFKKIKPEAFEANRFYTVINKKSGEIVPMEVNFNFDDPNLIILPLAFGKRQGREFIWNDLLSLETGSLKLANGRVIEKTLYNRRTRQDEPALFVALTFERREVLDSSNIKPMNLIGVARGENIPAVIALTDPEGCPLSRFKDSLGNPTHILRIGESYKEKQRTIQAKKEVEQRRAGGYSRKYASKAKNLADDMVRNTARDLLYYAVTQDAMLIFANLSRGFGRQGKRTFMAERQYTRMEDWLTAKLAYEGLSKTYLSKTLAQYTSKTCSNCGFTITSADYDRVLEKLKKTATGWMTTINGKELKVEGQITYYNRYKRQNVVKDLSVELDRLSEESVNNDISSWTKGRSGEALSLLKKRFSHRPVQEKFVCLNCGFETHAAEQAALNIARSWLFLRSQEYKKYQTNKTTGNTDKRAFVETWQSFYRKKLKEVWKPAV
For B6, the “percent editing at the B2M locus” value (human B2M locus) was “did not exhibit editing” and the “% of cells negative for the B2M protein” value ([2]; B2M-targeting gRNA) was roughly 10%.

B7: dXR4: dCasX491 fused to ZNF334 KRAB domain; protein SEQ ID NO: 59441 (protein)
chain: MAPKKKRKVSRGGSGGGSAQEIKRINKIRRRLVKDSNTKKAGKTGPMKTLLVRVMTPDLRERLENLRKKPENIPQPISNTSRANLNKLLTDYTEMKKAILHVYWEEFQKDPVGLMSRVAQPASKKIDQNKLKPEMDEKGNLTTAGFACSQCGQPLFVYKLEQVSEKGKAYTNYFGRCNVAEHEKLILLAQLKPEKDSDEAVTYSLGKFGQRALDFYSIHVTKESTHPVKPLAQIAGNRYASGPVGKALSDACMGTIASFLSKYQDIIIEHQKVVKGNQKRLESLRELAGKENLEYPSVTLPPQPHTKEGVDAYNEVIARVRMWVNLNLWQKLKLSRDDAKPLLRLKGFPSFPLVERQANEVDWWDMVCNVKKLINEKKEDGKVFWQNLAGYKRQEALRPYLSSEEDRKKGKKFARYQLGDLLLHLEKKHGEDWGKVYDEAWERIDKKVEGLSKHIKLEEERRSEDAQSKAALTDWLRAKASFVIEGLKEADKDEFCRCELKLQKWYGDLRGKPFAIEAENSILDISGFSKQYNCAFIWQKDGVKKLNLYLIINYFKGGKLRFKKIKPEAFEANRFYTVINKKSGEIVPMEVNFNFDDPNLIILPLAFGKRQGREFIWNDLLSLETGSLKLANGRVIEKTLYNRRTRQDEPALFVALTFERREVLDSSNIKPMNLIGVARGENIPAVIALTDPEGCPLSRFKDSLGNPTHILRIGESYKEKQRTIQAKKEVEQRRAGGYSRKYASKAKNLADDMVRNTARDLLYYAVTQDAMLIFANLSRGFGRQGKRTFMAERQYTRMEDWLTAKLAYEGLSKTYLSKTLAQYTSKTCSNCGFTITSADYDRVLEKLKKTATGWMTTINGKELKVEGQITYYNRYKRQNVVKDLSVELDRLSEESVNNDISSWTKGRSGEALSLLKKRFSHRPVQEKFVCLNCGFETHAAEQAALNIARSWLFLRSQEYKKYQTNKTTGNTDKRAFVETWQSFYRKKLKEVWKPAVRSGGSGGGSTSKMKKFQIPVSFQDLTVNFTQEEWQQLDPAQRLLYRDVMLENYSNLVSVGYHVSKPDVIFKLEQGEEPWIVEEFSNQNYPDTSPKKKRKV
In the case of B7, the “% cells expressing B2M protein” value ([2]; spacer 0.0 (non-targeting)) is reported as 98.23% and the “% cells expressing B2M protein” value ([2]; spacer 7.37 (B2M-targeting, CasX)) is reported as 19.80%.
